Reference: publication PMC13186708

Molecular target: Alistipes sp. Cas12f (Al3Cas12f), wild type (Alistipes sp.)
Assay: SEC; apo Al3Cas12f without gRNA on an S200i 10/300 GL column; 50 mM Tris-HCl pH 7.5, 250 mM NaCl, 10 mM MgCl2, 0.5 mM EDTA, 5% glycerol, 0.5 mM TCEP; peak at about 11.5 mL, near the 158 kDa standard

- stoichiometry N: 2
Substance: Alistipes sp. Cas12f (Al3Cas12f), wild type (enzyme)
